Source: article PMC11686114 (Frontiers in Immunology, 2024)
Ends that are not written are not given here.

T1: TRBV5-1 antigenic peptide No. 1 (…) conjugated to BSA (human)
T1 sequence (peptide): TQTPRYLIKTRGQQ

T2: TRBV5-1 antigenic peptide No. 1 (TQTPRYLIKTRGQQ), biotinylated (Homo sapiens, also: biotinylated (site not given here))
T2 construct: short form of antigenic peptide No. 1 of the TRBV5-1 segment of the human TCR beta chain; probably held on streptavidin, since its control is PBS-streptavidin (surmise); also called Ag3; peptide-biotin; source: synthetic peptide (Proteogenix)
T2 chain: TQTPRYLIKTRGQQ

T3: TRBV5-1 antigenic peptide No. 1 (TQTPRYLIKTRGQQ), peptide alone (Homo sapiens)
T3 construct: short form of antigenic peptide No. 1 of the TRBV5-1 segment of the human TCR beta chain; also called Ag1; Peptide N. 1; source: synthetic peptide (Proteogenix)
T3 chain: TQTPRYLIKTRGQQ


Columns and labels:
Experiment in all cases: ELISA; confirmatory monoclonal phage ELISA; antigens peptide alone, peptide-BSA, peptide-biotin; controls PBS, 10% BSA-PBS, PBS-streptavidin; phage dilution factors 1, 3, 9
[1] = target: T1, TRBV5-1 antigenic peptide No. 1 (…) conjugated to BSA (human)
[2] = target: T2, TRBV5-1 antigenic peptide No. 1 …; settings: one partner purified
[3] = target: T3, TRBV5-1 antigenic peptide No. 1 …; settings: one partner purified

| Binder | ELISA signal at phage dilution factor 1 [1] | ELISA signal at phage dilution factor 3 [1] | ELISA signal at phage dilution factor 9 [1] | ELISA signal at phage dilution factor 1 [2] | ELISA signal at phage dilution factor 3 [2] | ELISA signal at phage dilution factor 9 [2] | ELISA signal at phage dilution factor 1 [3] | ELISA signal at phage dilution factor 3 [3] | ELISA signal at phage dilution factor 9 [3] |
| --- | --- | --- | --- | --- | --- | --- | --- | --- | --- |
| scFv clone A2 (scFv, V domains shown, tested as phage clone in the confirmatory monoclonal ELISA; source: phage display clone from the human naive scFv library LiAb-SFMAX (Proteogenix), amplified in E. coli TG1) VH: QVQLQQSGPGLVKPSQTLSLTCAISGDSVSSNSAAWNWIRQSPSRGLEWLGRTYYRSKWYNDYAVSVKSRITINPDTSKNQFSLQLNSVTPEDTAVYYCARDQAAAEVYFDYWGQGTLVTVSS VL: NFMLTQPHSVSESPGKTVTISCTRSSGSIASNYLQWYQQRPGSAPTTVIYEDNQRPSGVPDRFSGSIDSSSNSASLTISGLKTEDEADYYCQSYDNRNHWVFGGGTQLTVL | 4.3 | 4.04 | 3.84 | 2.46 | 1.85 | 1.28 | 0.95 | 0.91 | 0.35 |
| scFv clone A5 (scFv, V domains shown, as printed identical to the VH of A2; tested as phage clone in the confirmatory monoclonal ELISA; source: phage display clone from the human naive scFv library LiAb-SFMAX (Proteogenix), amplified in E. coli TG1) VH: QVQLQQSGPGLVKPSQTLSLTCAISGDSVSSNSAAWNWIRQSPSRGLEWLGRTYYRSKWYNDYAVSVKSRITINPDTSKNQFSLQLNSVTPEDTAVYYCARDQAAAEVYFDYWGQGTLVTVSS VL: NFMLTQPHSVSESPGKTVTISCTRSSGSIASNYVQWYQQRPGSSPTTVIYEDNQRPSGVPDRFSGSIDSSSNSASLTISGLKTEDEADYYCQSYDSSNHWVFGGGTKVTVL | 4.09 | 3.8 | 3.74 | 2.73 | 2.53 | 1.55 | 0.88 | 0.37 | 0.11 |
| scFv clone A8 (scFv, V domains shown, tested as phage clone in the confirmatory monoclonal ELISA; source: phage display clone from the human naive scFv library LiAb-SFMAX (Proteogenix), amplified in E. coli TG1) VH: QVQLVQSGPEMKKAGASVRVSCKGSGYTFSSFDINWVRQVPGQGLEWMGWMNPDTGNTGLAQKFQGRVTMTRDTSIRTAYMELRSLRSDDTAVYYCARDAPRNGRGMDVWGQGTMVTVSS VL: SYELTQPPSVSVSPGQTARITCSGDALPKQYAYWYQQKPGQAPVLVIYQDTKRPSGIPERFSGSSSGTTVTLTISGVQAEDEADYYCQSADSSGTYPVFGGGTKLTVL | 4.58 | 4.2 | 4.14 | 2.09 | 2.06 | 2 | 0.94 | 0.37 | 0.14 |
| scFv clone D5 (scFv, V domains shown, tested as phage clone in the confirmatory monoclonal ELISA; source: phage display clone from the human naive scFv library LiAb-SFMAX (Proteogenix), amplified in E. coli TG1) VH: QVQLVQSGAEVKKPGASVKVSCKPSGYYFNGYDITWVRQAIGQGLEWMGWMNPNSGNRDYAHQFQGRLTMTWDTSLSTAYLELNNLQSDDTAIYYCARERVSSGLDFWGQGTLVTVSS VL: SYELTQPPSVSVSPGQTARITCSGDALPKQYAYWYQQKPGQAPVLLIYKDSERPSGIPERFSGSSSGTTVTLTISGVQAEDEADYYCQSADSSGTYVVFGGGTQLTVL | 4.03 | 3.56 | 3.5 | 2.38 | 1.9 | 1.67 | 0.75 | 0.32 | 0.13 |
| scFv clone C10 (scFv, V domains shown, tested as phage clone in the confirmatory monoclonal ELISA; source: phage display clone from the human naive scFv library LiAb-SFMAX (Proteogenix), amplified in E. coli TG1) VH: EVQLVQSGAEVKKPGSSVKVSCKASGGTFSSYAISWVRQAPGQGLEWMGGIIPIFGTANYAQKFQGRVTITADKSTSTAYMELSSLRSEDTAVYYCAREPLRGYSGYDFYYYGMDVWGQGTMVTVSS VL: SYELTQPHSVSGSPGETVTISCAGSGGSIASNYVQWYQQRPGSAPTTLIYEDKVRPSGVPDRFSGSIDYSSDSASLTISGLKTEDEADYYCQSADSTSTYVFGTGTKVTVL | 3.83 | 3.55 | 3.04 | 2.11 | 1.72 | 1.62 | 1.19 | 0.75 | 0.42 |
| scFv clone A12 (scFv, V domains shown, tested as phage clone in the confirmatory monoclonal ELISA; lead scFv from which the r-hIgG1 mAb was made; also called lead scFv; source: phage display clone from the human naive scFv library LiAb-SFMAX (Proteogenix), amplified in …) VH: QVQLQQWGAGLLKPSETLSLTCAVYGGSFSGYYWSWIRQPPGKGLEWIGEINHSGSTNYNPSLKSRVTISVDTSKNQFSLKLSSVTAADTAVYYCARWDLDYWGQGTLVTVSS VL: EIVLTQSPLSLPVTLGQSASISCRSSQSLVHSDGNTYLNWFQQRPGQSPRRLIYQVSKRDSGVPDRFSGSGSGTDFTLRISRVEAEDVGFYYCMQGTHWPPITFGQGTRLEIK | 2.93 | 1.82 | 0.78 | 2.79 | 1.99 | 1.22 | 0.99 | 0.33 | 0.12 |
